For 1 substance, TMT signal-to-noise ratio results are on record in patent publication US20210063414A1, “METHODS FOR PREVENTING AND/OR TREATING BONE LOSS CONDITIONS BY MODULATING IRISIN” (Dana-Farber Cancer Institute, Inc., priority 2018, published 2021).

This assay addresses T1, MLO-Y4 cell surface proteins (Mus musculus, UniProt O88492).
T1 construct: endogenous in cells; host or cells: MLO-Y4
T1 sequence (O88492 1-1403): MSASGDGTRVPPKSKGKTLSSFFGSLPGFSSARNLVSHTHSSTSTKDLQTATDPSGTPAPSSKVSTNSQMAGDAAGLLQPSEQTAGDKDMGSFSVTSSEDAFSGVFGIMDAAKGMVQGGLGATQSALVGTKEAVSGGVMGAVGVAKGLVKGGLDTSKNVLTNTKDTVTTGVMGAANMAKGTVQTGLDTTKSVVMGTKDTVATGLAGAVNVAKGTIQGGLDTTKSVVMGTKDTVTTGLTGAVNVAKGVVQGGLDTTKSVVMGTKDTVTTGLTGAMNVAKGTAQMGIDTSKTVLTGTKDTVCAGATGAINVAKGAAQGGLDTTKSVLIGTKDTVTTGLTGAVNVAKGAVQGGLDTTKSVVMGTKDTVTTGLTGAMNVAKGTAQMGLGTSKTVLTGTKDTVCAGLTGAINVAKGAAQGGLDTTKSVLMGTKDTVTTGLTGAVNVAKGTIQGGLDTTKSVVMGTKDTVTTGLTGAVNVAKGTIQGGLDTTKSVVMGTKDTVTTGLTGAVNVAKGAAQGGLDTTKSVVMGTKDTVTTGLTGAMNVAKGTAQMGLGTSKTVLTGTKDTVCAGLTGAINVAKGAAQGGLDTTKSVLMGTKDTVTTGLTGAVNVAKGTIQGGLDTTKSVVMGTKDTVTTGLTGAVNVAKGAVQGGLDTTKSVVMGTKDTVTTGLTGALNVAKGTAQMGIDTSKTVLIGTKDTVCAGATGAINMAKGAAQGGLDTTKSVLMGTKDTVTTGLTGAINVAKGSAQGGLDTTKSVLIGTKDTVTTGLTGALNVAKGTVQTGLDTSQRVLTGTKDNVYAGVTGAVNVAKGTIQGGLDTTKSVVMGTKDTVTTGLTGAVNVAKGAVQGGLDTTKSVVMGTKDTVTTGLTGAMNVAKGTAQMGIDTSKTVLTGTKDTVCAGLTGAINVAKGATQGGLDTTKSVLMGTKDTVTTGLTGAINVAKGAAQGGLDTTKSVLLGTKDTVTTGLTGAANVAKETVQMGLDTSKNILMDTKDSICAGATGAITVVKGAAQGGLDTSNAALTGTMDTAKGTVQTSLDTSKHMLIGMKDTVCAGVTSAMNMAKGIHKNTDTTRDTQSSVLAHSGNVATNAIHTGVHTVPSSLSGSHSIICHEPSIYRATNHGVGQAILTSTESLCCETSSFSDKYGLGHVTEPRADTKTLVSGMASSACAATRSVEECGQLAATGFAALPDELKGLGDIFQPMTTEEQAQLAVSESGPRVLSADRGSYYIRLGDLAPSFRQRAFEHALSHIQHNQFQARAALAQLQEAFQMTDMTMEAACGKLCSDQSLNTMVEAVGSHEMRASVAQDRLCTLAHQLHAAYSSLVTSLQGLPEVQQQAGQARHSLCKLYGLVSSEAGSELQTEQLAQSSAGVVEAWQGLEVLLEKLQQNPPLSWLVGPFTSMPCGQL
The assay is described as follows: Crosslinking/co-immunoprecipitation/mass spectrometry (TMT quantitative proteomics) to identify irisin receptors. Format: binding. As to conditions: co-precipitated protein Plin4 (PLIN4_MOUSE). Here is the method: MLO-Y4 cells were seeded on 30×150 mm type-I collagen coated dishes as described in cell culture experiment. At 60% cell density, medium was switched to FreeStyle™ 293 Expression medium. After 4 hours incubation, the cells were chilled on ice for 10 minutes, followed by treatment of 10 nM his-tag irisin or his-tag adipsin for 20 minutes. The cells were then incubated with 1.5 mM DTSSP for 30 minutes on ice to do cross-linking, after washing with 15 ml cold PBS twice. The cross-linking was quenched by addition of a final concentration of 20 mM Tris-pH 7.5. The cells were then harvested and homogenized in 1 ml RIPA buffer containing proteaseinhibitor cocktailand phosphatase-inhibitor cocktail. Whole-cell lysates were homogenized by 10 times passages through a 22G needle fitted to a 3 ml syringe. Homogenized samples were rotated gently in cold room for 20 minutes followed by 15,000×g centrifugation for 10 minutes. After addition of a final concentration of 10 mM imidazole, supernatants were incubated with 100 μl Ni-NTA agarose for 1 hour. After centrifugation at 500×g for 1 minute, the supernatants were aspirated and 1 ml cold RIPA buffer containing 10 mM imidazole were added to the agarose. After 10 minutes rotation in cold room, the supernatants were aspirated and 1 ml cold RIPA buffer containing 30 mM imidazole were added to the agarose. After repeating the washing 3 times, 0.8 ml RIPA buffer containing 250 mM imidazole was added and the agarose was gently rotated in a cold room for 20 minutes. After centrifugation at 1000×g for 2 minutes, the supernatants were transferred to 1.5 ml tube and incubated with 100 μl 0.2% sodium deoxycholate and 100 μl 10% trichloroacetic acid in ice for 1 hour. After centrifugation at 12,000×g for 10 minutes at 4° C., the supernatants were removed and 1 ml cold acetone was added to the pellets followed by vortexing for 10 seconds. After one more washing with cold acetone, the pellets were dried at 37° C., and 39 μl PBS and 13 μl 4×NuPAGE LDS were added to the pellets with a final concentration of 5 mM DTT. Solubilized proteins were incubated at 65° C. for 20 minutes followed by incubation with a final concentration of 14 mM iodoacetamide for 45 minutes in the dark. 38 μl samples were loaded to 4-12% gradient SDS-PAGE for separation followed by Coomassie Blue staining. The gels were submitted to quantitative proteomics.
For in-gel digestions, gels were stained with Coomassie Blue and were excised into 8 equal segments for control and irisin lanes. Gel pieces were destained and dehydrated with 100% acetonitrile, vacuumed dried, and digested in 25 mM HEPES (pH 8.5) with 500 ng sequencing grade trypsin (Promega) and incubated for an overnight at 37° C. (Shevchenko et al. (1996) Anal. Chem. 68:850-858). Digests were treated with 1% formic acid and purified using C18 Stage-Tips as previously described (Rappsilber et al. (2007) Nat. Protoc. 2:1896-1906). Peptides were eluted with 70% acetonitrile and 1% formic acid, then dried using a speedvac. Isobaric labeling of digested peptides was accomplished using 6-plex tandem mass tag (TMT) reagents (Thermo Fisher Scientific, Rockford, Ill.). Reagents, 5.0 mg, were dissolved in 252 μl acetonitrile (ACN) and 5 μl of the solution was added to the digested peptides dissolved in 25 μl of 200 mM HEPES, pH 8.5. After 1 hour at room temperature, the reaction was quenched by adding 1 μl of 5% hydroxylamine. Labeled peptides were combined and acidified prior to C18 Stage-Tips desalting.
All LC-MS/MS experiments were performed on an Orbitrap Fusion™ Lumos mass spectrometer (Thermo Fisher Scientific, San Jose, Calif., USA) coupled with a Proxeon EASY-nLC™ 1200 LC pump (Thermo Fisher Scientific). Peptides were separated on a 100 μm inner diameter microcapillary column packed with 35 cm of Accucore™ C18 resin (1.8 μm, 100 Å, Thermo Fisher Scientific). […]

As to adipsin, the TMT signal-to-noise ratio was 111.989.
